Blank lines part the entries; values can stand above or below the binder they belong to.
Experiments:
[1] = molecular target: T1, B Lymphocyte Stimulator, soluble form (human) (human, UniProt Q9Y275 134-285, biotinylated with NHS-biotin where used as biotinylated B Lymphocyte Stimulator); experiment: phage ELISA
T1 construct: Coated on plastic, captured on streptavidin plates, amine-coupled to a CM5 chip or free in solution, depending on the assay; also called BLyS; immobilized B Lymphocyte Stimulator

[2] = molecular target: T2, membrane-bound B Lymphocyte Stimulator on U937 plasma membrane preparations (human, UniProt Q9Y275 1-285); experiment: phage ELISA
T2 construct: Natural protein in plasma membrane fractions of the human cell line U937 coated on ELISA plates; also called U937 plasma membranes; U937 membranes

[3] = molecular target: T3, HIS-tagged B Lymphocyte Stimulator (human, UniProt Q9Y275 71-285); experiment: phage ELISA
T3 construct: Expressed in E. coli from pQE9 and purified; also called histidine-tagged B Lymphocyte Stimulator; HIS-B Lymphocyte Stimulator; not shown: histidine tag of the pQE9 vector

[4] = molecular target: T1, B Lymphocyte Stimulator, soluble form …; experiment: BIAcore 2000, purified scFv over low density (500 RU) BLyS surface
[5] = molecular target: T3, HIS-tagged B Lymphocyte Stimulator; experiment: BIAcore, purified scFv over low density (500 RU) HIS-BLyS surface
Description: The chip containing the low density HIS-B Lymphocyte Stimulator surface was inserted into the BIAcore. […] The dilution series was then injected sequentially over the blank control (flow cell 1) and low density HIS-B Lymphocyte Stimulator surface (flow cell 2) using the following program: […]

LIGHT = LIGHT (human, UniProt O43557 74-240, limits assumed); experiment: phage ELISA
Bovine serum albumin = molecular target: T4, Bovine serum albumin (bovine, UniProt P02769 25-607); experiment: phage ELISA
T4 construct: also called BSA

TNF-alpha = molecular target: T5, TNF-alpha (human, UniProt P01375 77-233); experiment: phage ELISA
T5 construct: also called TNFα; TNF-α

TNF-beta = molecular target: T6, TNF-beta (human, UniProt P01374 35-205); experiment: phage ELISA
T6 construct: also called TNFβ; Tumour Necrosis Factor-beta
T6 sequence (looked up): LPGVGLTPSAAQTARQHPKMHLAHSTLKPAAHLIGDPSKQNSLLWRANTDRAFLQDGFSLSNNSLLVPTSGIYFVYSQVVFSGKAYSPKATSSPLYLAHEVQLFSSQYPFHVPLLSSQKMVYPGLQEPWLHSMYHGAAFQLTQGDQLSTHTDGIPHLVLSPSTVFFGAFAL

TRAIL = molecular target: T7, TRAIL (human, UniProt P50591 114-281); experiment: phage ELISA
T7 construct: also called TNF-related apoptosis inducing ligand

[6] = molecular target: T1, B Lymphocyte Stimulator, soluble form …; experiment: phage ELISA, biotinylated BLyS on streptavidin plates
[7] = molecular target: T8, biotinylated B Lymphocyte Stimulator, soluble form (human, UniProt Q9Y275 134-285, biotinylated with NHS-biotin, molar ratio 20:1 biotin:protein); experiment: purified scFv, receptor binding inhibition on IM9 cells
T8 construct: also called bio-B Lymphocyte Stimulator; free B Lymphocyte Stimulator

[8] = molecular target: T1, B Lymphocyte Stimulator, soluble form …; experiment: cell-based or functional assay
[9] = molecular target: T1, B Lymphocyte Stimulator, soluble form …; experiment: BIAcore, IgG1 captured on low-density Protein A surface, BLyS passed over
Description: Briefly, antibodies were captured on low-density Protein A surfaces and B Lymphocyte Stimulator was passed over at various flow rates. The binding of B Lymphocyte Stimulator to immobilized antibody was detected by changes in […] that were proportional to the amount of bound B Lymphocyte Stimulator. Binding values were calculated using software provided by the manufacturer.

T4 sequence (P02769 25-607 limits assumed): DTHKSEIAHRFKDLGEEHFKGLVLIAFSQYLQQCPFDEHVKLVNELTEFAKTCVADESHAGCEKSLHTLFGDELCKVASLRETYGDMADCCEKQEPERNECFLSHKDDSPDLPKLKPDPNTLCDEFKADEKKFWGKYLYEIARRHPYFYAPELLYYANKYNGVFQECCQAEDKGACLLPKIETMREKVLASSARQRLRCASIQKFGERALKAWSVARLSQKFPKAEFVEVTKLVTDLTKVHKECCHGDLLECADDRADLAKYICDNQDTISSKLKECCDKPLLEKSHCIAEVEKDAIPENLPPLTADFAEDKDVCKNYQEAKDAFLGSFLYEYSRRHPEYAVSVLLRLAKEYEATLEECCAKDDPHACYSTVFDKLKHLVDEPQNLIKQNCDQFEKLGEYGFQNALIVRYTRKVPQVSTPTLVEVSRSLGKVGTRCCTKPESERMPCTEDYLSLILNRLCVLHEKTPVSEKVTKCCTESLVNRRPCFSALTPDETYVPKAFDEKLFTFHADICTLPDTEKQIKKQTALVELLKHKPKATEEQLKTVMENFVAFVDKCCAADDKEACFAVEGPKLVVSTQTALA
LIGHT, sequence (O43557 74-240 limits assumed): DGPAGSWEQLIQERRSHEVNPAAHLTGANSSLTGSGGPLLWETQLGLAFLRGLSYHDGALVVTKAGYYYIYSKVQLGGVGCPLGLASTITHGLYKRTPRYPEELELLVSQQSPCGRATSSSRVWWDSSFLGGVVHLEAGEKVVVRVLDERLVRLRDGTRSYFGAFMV
T5 sequence (P01375 77-233 limits assumed): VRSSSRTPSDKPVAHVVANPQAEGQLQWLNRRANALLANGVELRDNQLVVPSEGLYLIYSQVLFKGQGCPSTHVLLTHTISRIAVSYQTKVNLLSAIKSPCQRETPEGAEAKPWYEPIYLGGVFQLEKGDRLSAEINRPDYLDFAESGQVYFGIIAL
T7 sequence (P50591 114-281 limits assumed): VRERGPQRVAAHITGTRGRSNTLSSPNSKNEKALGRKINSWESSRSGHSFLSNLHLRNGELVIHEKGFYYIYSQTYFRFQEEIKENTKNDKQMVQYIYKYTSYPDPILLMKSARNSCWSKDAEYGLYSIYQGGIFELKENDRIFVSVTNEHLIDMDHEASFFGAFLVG

B2: I003C02 (scFv)
scFv: EVQLVQSGAEVKKPGSSVKVSCQASGGNFNSYGVSWVRQAPGQGLEWMGRIIPNVGTANYAQKFQGRVTITADKLTSTVYLEVRSLRSEDTAVYYCARGDYDILTGYPAECFQIWGQGTMVTVSSGGGGSGGGGSGGGGSAQAVLTQPSSASGTPGQRVTISCSGSTSNIGTNTVNWYQQLPGTAPKLLIYSNHLRPSGVPDRFSGSKSGTSASLAISGLQSEDEADYYCSARDDSLNGVVFGGGTKVTVLG
koff [4]: 0.006 s⁻¹

B3: I082C03 (scFv)
scFv: QVQLVQSGSEVKKPGASVKVSCKTSGYSFTGYFIHWVRQAPGQGLEWMGWINPNSGGTNLAQKFQGRVTMTRDTSISTAYMELSSLKSDDTAVYYCARDASRDIVVLPLAIWGKGTLVTVSSGGGGSGGGGSGGGGSDIQMTQSPSTLSASIGDRVTITCRASEGIYHWLAWYQQKPGKAPKLLIYKASSLASGAPSRFSGSGSGTDFTLTISSLQPDDFATYYCQQYSNYPLTFGGGTKLEIKR
Kd [5]: 20 nM
koff [5]: 0.002 s⁻¹

B7: I006D08 (whole IgG1) (antibody, V domains shown)
VH: QVQLQQSGAEVKKPGSSVRVSCKASGGTFNNNAINWVRQAPGQGLEWMGGIIPMFGTAKYSQNFQGRVAITADESTSTASMELSSLRSEDTAVYYCARSRDLLLFPHYGMDVWGRGTMVTVSS
VL: SSELTQDPAVSVALGQTVRVTCQGDSLRSYYASWYQQKPGQAPVLVIYGKNNRPSGIPDRFSGSSSGNTASLTITGAQAEDEADYYCNSRDSSGNHWVFGGGTELTVLG
notes: constant regions (human IgG1)
IC50 for the inhibition of human B Lymphocyte Stimulator induced-proliferation of murine B cells (3H-thymidine incorporation) [8]: 0.09 nM
fold higher Kd than I116A01 [9]: ~2 fold
fold higher off rate (kd) than I116A01 [9]: 2 fold

Results, then the binder that gave them:

binding result [1]: no binding
binding result [2]: binds
binding result [3]: binds
B1: I082A02 (scFv)
scFv: QVQLVQSGAEVKEPGASVKISCEASGYTFTNNFIDWVRQAPGQGLEWMGTISGSTGNTYYKQGFQGRVTMTRDTATSTAYLEVRGLTSEDTAIYFCARPAASSRGPKDAFDIWGQGTLVTVSSGGGGSGGGGSGGGGSQSVLTQPPSVSAAPGQKVTISCSGSTSNIGNNYVSWYQQHPGKAPKLMIYDVSKRPSGVPDRFSGSKSGNSASLDISGLQSEDEADYYCAAWDDSLSEFLFGTGTKLTVLG

binding result [1]: no binding
binding result [2]: binds
binding result [3]: binds
B4: I079C01 (scFv)
scFv: EVQLVESGGGLVQPGGSLRLSCAASGFTFSDYGMHWVRQRPGKGLEWIAFIGSDGSNKYYGDTVKGRFTISRDNAKNSLYLQMNSLRAEGTAVYYCARDWDMDVWGQGTMVTVSSGGGGSGGGGSGGGGSHVILTQPRSVSGSPGQSVTISCTGTSSDVGGYHYVSWYQQHPGKAPRLMIYEVTKRPSGVSNRFSGSKSGNTASLTISGVQAEDEADYYCSSYTSASTVIFGGGTKLTVLG

binding result (LIGHT): no binding
binding result (Bovine serum albumin): no binding
binding result (TNF-alpha): no binding
binding result (TNF-beta): no binding
binding result (TRAIL): no binding
binding result [6]: binds
B5: I075F12 (scFv)
scFv: QVQLVQSGAEVKKPGSSVKVSCKASGGTVSSRTISWVRQAPGQGLEWMGGSLPPSGAPIYAQKFQGRVAITADALTNTAFMELRSLKSDDTAVYYCARDQGRYLDLWGQGTMVTVSSGGGGSGGGGSGGGGSAQAVLTQPSSASGTPGQRATISCSGSSSDIGINAVNWYKQLPRTAPKLLIYRNNQRPSGVPDRFSGSKSGTSASLAIIGLQSEDEADYYCATWDDSLTAYVFGTGTKVTVLG

binding result [7]: binds
B6: I003F12S (scFv)
scFv: QVQLLQSAAELKKPGQSLKISCKGSGFTFTTYWIGWVRQLPGKGLEWMGIIYPGDSHTTYSPSFEGHVNISVDKSINTAYLQWSSLKASDTAMYYCARHDDDVLTGYYFESWGQGTMVTVSSGGGGSGGGGSGGGGSQSVLTQPASVSGSPGQSITISCTGTSSDVGGYNYVSWYQQHPGKAPKLMIYEGSKRPSGVSNRFSGSKSGNTASLTISGLQAEDEADYYCSSYTTRSTRVFGGGTKLTVLG

— US20110293610A1 (published 2011)
